Target: T1, murine β2GPI (in normal mouse serum) (mouse, UniProt Q01339 20-345)
T1 construct: mature; also called mouse β2GPI
T1 sequence (looked up): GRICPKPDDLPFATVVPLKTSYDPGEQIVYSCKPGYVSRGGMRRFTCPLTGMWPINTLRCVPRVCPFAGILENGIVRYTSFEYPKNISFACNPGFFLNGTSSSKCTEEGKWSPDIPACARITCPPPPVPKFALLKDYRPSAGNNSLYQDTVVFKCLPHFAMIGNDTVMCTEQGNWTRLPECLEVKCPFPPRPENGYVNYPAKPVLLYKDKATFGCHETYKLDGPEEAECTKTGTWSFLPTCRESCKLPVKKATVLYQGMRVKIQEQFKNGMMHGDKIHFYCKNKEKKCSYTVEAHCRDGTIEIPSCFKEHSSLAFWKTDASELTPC
Test: immunoblot of 10% normal mouse serum

binding result: no binding (tested: 1 µg/ml)
B1: 3G4 mouse monoclonal antibody as used in Example XXX (converted to mouse IgG2a isotype, produced in NS0 cells) (antibody, V domains shown)
VH: EVQLQQSGPELEKPGASVKLSCKASGYSFTGYNMNWVKQSHGKSLEWIGHIDPYYGDTSYNQKFRGKATLTVDKSSSTAYMQLKSLTSEDSAVYYCVKGGYYGHWYFDVWGAGTTVTVSS
VL: DIQMTQSPSSLSASLGERVSLTCRASQDIGSSLNWLQQGPDGTIKRLIYATSSLDSGVPKRFSGSRSGSDYSLTISSLESEDFVDYYCLQYVSSPPTFGAGTKLELKR
notes: It was purified from serum-free media (SFM) or serum-containing media (SCM); also called 3G4 SFM; 3G4 SCM

Reference: US20060228299A1 (University of Texas, published 2006)
